# B1: CvarLOG1 (Chlorella variabilis) (protein)
# chain: MADSQPASFRKIAVFCGASSGSNPLYIEAARLLGAEMARRGIGLVYGGGNVGLMGAVAEAVGSRLGPDQVIGVIPAALEPREISGTTVGEIRVVGSMHERKAMMFEEADAFIMIPGGYGTLDETLEITTWQQLGFHTKPVGLLNINGFFNKLLAFLDHATQEGFIRPSSRAILVSGDTPGELIDTLAAYQAPPSLLRLASEGKLGVHERG
# notes: native protein 211 residues
# Tests used:
# purified protein [1] = substrate: CC(C)=CCNc1ncnc2c1ncn2[C@@H]1O[C@H](COP(=O)(O)O)[C@@H](O)[C@H]1O; test: purified protein; type: biochemical, Chlorella variabilis; settings: 50 mM Tris, 1 mM MgCl2, 1 mM DTT, pH 7, 30 °C
# purified protein [2] = substrate: C/C(=C\CNc1ncnc2c1ncn2[C@@H]1O[C@H](COP(=O)(O)O)[C@@H](O)[C@H]1O)CO; test: purified protein; type: biochemical, Chlorella variabilis; settings: 50 mM Tris, 1 mM MgCl2, 1 mM DTT, pH 7, 30 °C
protein,measurement,setting,value
B1,Km,purified protein [1],54.99 µM
same,Km,purified protein [2],133.5 µM
